Kd data for 27 molecules are collected here from article PMC10786891, “Massively parallel profiling of RNA-targeting CRISPR-Cas13d”.

T1: EsCas13d, nuclease-dead (Eubacterium siraeum, UniProt B0MS50, R295A;H300A;R849A;H854A)
T1 sequence: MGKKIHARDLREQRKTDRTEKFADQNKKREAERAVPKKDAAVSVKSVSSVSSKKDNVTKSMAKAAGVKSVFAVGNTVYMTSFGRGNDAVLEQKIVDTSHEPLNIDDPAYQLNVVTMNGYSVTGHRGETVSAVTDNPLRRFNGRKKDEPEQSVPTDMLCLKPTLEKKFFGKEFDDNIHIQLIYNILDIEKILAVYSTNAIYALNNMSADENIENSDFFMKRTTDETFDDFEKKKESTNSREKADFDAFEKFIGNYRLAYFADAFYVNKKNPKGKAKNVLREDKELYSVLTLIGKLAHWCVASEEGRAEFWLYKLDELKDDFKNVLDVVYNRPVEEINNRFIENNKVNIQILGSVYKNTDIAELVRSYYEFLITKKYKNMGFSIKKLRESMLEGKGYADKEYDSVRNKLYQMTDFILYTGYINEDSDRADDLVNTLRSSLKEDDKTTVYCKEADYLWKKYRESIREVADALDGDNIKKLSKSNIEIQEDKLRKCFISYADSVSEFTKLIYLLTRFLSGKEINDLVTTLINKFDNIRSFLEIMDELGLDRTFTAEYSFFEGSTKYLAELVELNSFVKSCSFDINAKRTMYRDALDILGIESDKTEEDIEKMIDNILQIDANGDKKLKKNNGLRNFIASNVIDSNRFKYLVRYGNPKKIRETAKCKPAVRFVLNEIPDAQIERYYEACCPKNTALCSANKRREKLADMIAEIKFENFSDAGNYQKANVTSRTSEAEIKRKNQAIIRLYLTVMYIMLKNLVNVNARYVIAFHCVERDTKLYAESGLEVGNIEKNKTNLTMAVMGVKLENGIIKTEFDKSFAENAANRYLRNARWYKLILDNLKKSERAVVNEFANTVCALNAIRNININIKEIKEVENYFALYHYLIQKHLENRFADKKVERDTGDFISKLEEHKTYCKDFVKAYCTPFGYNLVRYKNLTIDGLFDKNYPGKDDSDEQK

B1: target 3 U2A,U8C (mixed)
RNA 1: CACCCGUGCAAAAUUGCAGGGGUCUAAAACGACCUGAAUAUUUCAGAUCAAA
RNA 2: GGGAAUGGAUCCACAUCUACGAAUUCGUUUUUGAUCUGAAAUACUCAGGACUGCAGAUCGGAAGAGCACACGU
B2: target 3 A5G,A18G (mixed)
RNA 1: CACCCGUGCAAAAUUGCAGGGGUCUAAAACGACCUGAAUAUUUCAGAUCAAA
RNA 2: GGGAAUGGAUCCACAUCUACGAAUUCGUUUUUGGUCUGAAAUAUUCGGGUCUGCAGAUCGGAAGAGCACACGU
B3: target 3 insA 3' of 6,insU 3' of 5 (mixed)
RNA 1: CACCCGUGCAAAAUUGCAGGGGUCUAAAACGACCUGAAUAUUUCAGAUCAAA
RNA 2: GGGAAUGGAUCCACAUCUACGAAUUCGUUUUUGAUCUGAAAUAUUCAAUGGUCUGCAGAUCGGAAGAGCACACGU
B4: target 3 insA 3' of 21,insA 3' of 6 (mixed)
RNA 1: CACCCGUGCAAAAUUGCAGGGGUCUAAAACGACCUGAAUAUUUCAGAUCAAA
RNA 2: GGGAAUGGAUCCACAUCUACGAAUUCGUUUUAUGAUCUGAAAUAUUCAAGGUCUGCAGAUCGGAAGAGCACACGU
B5: target 3 insU 3' of 13,insA 3' of 2 (mixed)
RNA 1: CACCCGUGCAAAAUUGCAGGGGUCUAAAACGACCUGAAUAUUUCAGAUCAAA
RNA 2: GGGAAUGGAUCCACAUCUACGAAUUCGUUUUUGAUCUGAUAAUAUUCAGGUACUGCAGAUCGGAAGAGCACACGU
B6: target 3 insA 3' of 8,insC 3' of 8 (mixed)
RNA 1: CACCCGUGCAAAAUUGCAGGGGUCUAAAACGACCUGAAUAUUUCAGAUCAAA
RNA 2: GGGAAUGGAUCCACAUCUACGAAUUCGUUUUUGAUCUGAAAUAUACUCAGGUCUGCAGAUCGGAAGAGCACACGU
B7: target 3 A12U,A18G (mixed)
RNA 1: CACCCGUGCAAAAUUGCAGGGGUCUAAAACGACCUGAAUAUUUCAGAUCAAA
RNA 2: GGGAAUGGAUCCACAUCUACGAAUUCGUUUUUGGUCUGAUAUAUUCAGGUCUGCAGAUCGGAAGAGCACACGU
B8: target 3 insA 3' of 2,insA 3' of 1 (mixed)
RNA 1: CACCCGUGCAAAAUUGCAGGGGUCUAAAACGACCUGAAUAUUUCAGAUCAAA
RNA 2: GGGAAUGGAUCCACAUCUACGAAUUCGUUUUUGAUCUGAAAUAUUCAGGUACAUGCAGAUCGGAAGAGCACACGU
B9: target 3 insA 3' of 22,insA 3' of 7 (mixed)
RNA 1: CACCCGUGCAAAAUUGCAGGGGUCUAAAACGACCUGAAUAUUUCAGAUCAAA
RNA 2: GGGAAUGGAUCCACAUCUACGAAUUCGUUUAUUGAUCUGAAAUAUUACAGGUCUGCAGAUCGGAAGAGCACACGU
B10: target 3 A12G,U22G (mixed)
RNA 1: CACCCGUGCAAAAUUGCAGGGGUCUAAAACGACCUGAAUAUUUCAGAUCAAA
RNA 2: GGGAAUGGAUCCACAUCUACGAAUUCGUUGUUGAUCUGAGAUAUUCAGGUCUGCAGAUCGGAAGAGCACACGU
B11: target 3 G3U,A5G (mixed)
RNA 1: CACCCGUGCAAAAUUGCAGGGGUCUAAAACGACCUGAAUAUUUCAGAUCAAA
RNA 2: GGGAAUGGAUCCACAUCUACGAAUUCGUUUUUGAUCUGAAAUAUUCGGUUCUGCAGAUCGGAAGAGCACACGU
B12: target 3 insC 3' of 3,insG 3' of 2 (mixed)
RNA 1: CACCCGUGCAAAAUUGCAGGGGUCUAAAACGACCUGAAUAUUUCAGAUCAAA
RNA 2: GGGAAUGGAUCCACAUCUACGAAUUCGUUUUUGAUCUGAAAUAUUCAGGCUGCUGCAGAUCGGAAGAGCACACGU
B13: target 3 G4A,U8C (mixed)
RNA 1: CACCCGUGCAAAAUUGCAGGGGUCUAAAACGACCUGAAUAUUUCAGAUCAAA
RNA 2: GGGAAUGGAUCCACAUCUACGAAUUCGUUUUUGAUCUGAAAUACUCAAGUCUGCAGAUCGGAAGAGCACACGU
B14: target 3 insC 3' of 5,insG 3' of 2 (mixed)
RNA 1: CACCCGUGCAAAAUUGCAGGGGUCUAAAACGACCUGAAUAUUUCAGAUCAAA
RNA 2: GGGAAUGGAUCCACAUCUACGAAUUCGUUUUUGAUCUGAAAUAUUCACGGUGCUGCAGAUCGGAAGAGCACACGU
B15: target 3 insC 3' of 22,insC 3' of 3 (mixed)
RNA 1: CACCCGUGCAAAAUUGCAGGGGUCUAAAACGACCUGAAUAUUUCAGAUCAAA
RNA 2: GGGAAUGGAUCCACAUCUACGAAUUCGUUUCUUGAUCUGAAAUAUUCAGGCUCUGCAGAUCGGAAGAGCACACGU
B16: target 3 insA 3' of 3,insG 3' of 2 (mixed)
RNA 1: CACCCGUGCAAAAUUGCAGGGGUCUAAAACGACCUGAAUAUUUCAGAUCAAA
RNA 2: GGGAAUGGAUCCACAUCUACGAAUUCGUUUUUGAUCUGAAAUAUUCAGGAUGCUGCAGAUCGGAAGAGCACACGU
B17: target 3 insG 3' of 8,insC 3' of 8 (mixed)
RNA 1: CACCCGUGCAAAAUUGCAGGGGUCUAAAACGACCUGAAUAUUUCAGAUCAAA
RNA 2: GGGAAUGGAUCCACAUCUACGAAUUCGUUUUUGAUCUGAAAUAUGCUCAGGUCUGCAGAUCGGAAGAGCACACGU
B18: target 3 G4A,U8G (mixed)
RNA 1: CACCCGUGCAAAAUUGCAGGGGUCUAAAACGACCUGAAUAUUUCAGAUCAAA
RNA 2: GGGAAUGGAUCCACAUCUACGAAUUCGUUUUUGAUCUGAAAUAGUCAAGUCUGCAGAUCGGAAGAGCACACGU
B19: target 3 insG 3' of 8,insC 3' of 3 (mixed)
RNA 1: CACCCGUGCAAAAUUGCAGGGGUCUAAAACGACCUGAAUAUUUCAGAUCAAA
RNA 2: GGGAAUGGAUCCACAUCUACGAAUUCGUUUUUGAUCUGAAAUAUGUCAGGCUCUGCAGAUCGGAAGAGCACACGU
B20: target 3 insU 3' of 5,insA 3' of 3 (mixed)
RNA 1: CACCCGUGCAAAAUUGCAGGGGUCUAAAACGACCUGAAUAUUUCAGAUCAAA
RNA 2: GGGAAUGGAUCCACAUCUACGAAUUCGUUUUUGAUCUGAAAUAUUCAUGGAUCUGCAGAUCGGAAGAGCACACGU
B21: target 3 insC 3' of 18,insA 3' of 17 (mixed)
RNA 1: CACCCGUGCAAAAUUGCAGGGGUCUAAAACGACCUGAAUAUUUCAGAUCAAA
RNA 2: GGGAAUGGAUCCACAUCUACGAAUUCGUUUUUGACUACUGAAAUAUUCAGGUCUGCAGAUCGGAAGAGCACACGU
B22: target 3 U7A,A13G (mixed)
RNA 1: CACCCGUGCAAAAUUGCAGGGGUCUAAAACGACCUGAAUAUUUCAGAUCAAA
RNA 2: GGGAAUGGAUCCACAUCUACGAAUUCGUUUUUGAUCUGGAAUAUACAGGUCUGCAGAUCGGAAGAGCACACGU
B23: target 3 U2C,A5U (mixed)
RNA 1: CACCCGUGCAAAAUUGCAGGGGUCUAAAACGACCUGAAUAUUUCAGAUCAAA
RNA 2: GGGAAUGGAUCCACAUCUACGAAUUCGUUUUUGAUCUGAAAUAUUCUGGCCUGCAGAUCGGAAGAGCACACGU
B24: target 1 A1U,C6G (mixed)
RNA 1: CACCCGUGCAAAAAUGCAGGGGUCUAAAACUGAGCGGAUAACCUCUCUAUGG
RNA 2: GGGAAUGGAUCCACAUCUACGAAUUCGUACCAUAGAGAGGUUAUCGGCUCUCCGAGAUCGGAAGAGCACACGU
B25: target 1 A1U,C4U (mixed)
RNA 1: CACCCGUGCAAAAAUGCAGGGGUCUAAAACUGAGCGGAUAACCUCUCUAUGG
RNA 2: GGGAAUGGAUCCACAUCUACGAAUUCGUACCAUAGAGAGGUUAUCCGUUCUCCGAGAUCGGAAGAGCACACGU
B26: target 1 U3G,C6U (mixed)
RNA 1: CACCCGUGCAAAAAUGCAGGGGUCUAAAACUGAGCGGAUAACCUCUCUAUGG
RNA 2: GGGAAUGGAUCCACAUCUACGAAUUCGUACCAUAGAGAGGUUAUCUGCGCACCGAGAUCGGAAGAGCACACGU
B27: target 1 A9C,U11G (mixed)
RNA 1: CACCCGUGCAAAAAUGCAGGGGUCUAAAACUGAGCGGAUAACCUCUCUAUGG
RNA 2: GGGAAUGGAUCCACAUCUACGAAUUCGUACCAUAGAGAGGGUCUCCGCUCACCGAGAUCGGAAGAGCACACGU

For the data set, the target named is T1, EsCas13d, nuclease-dead. Briefly: crRNA (strand 1, pre-loaded); Mg2+; 40 mM Tris-HCl pH 7.5, 150 mM NaCl, 6 mM MgCl2, 1 mM DTT, 0.1% Tween-20, 0.2 mg/ml BSA; 25 C; 10 min per concentration, then washed. The note with it: tags: His6-TwinStrep-SUMO cleaved; N-terminal SNAP kept (SNAP-Surface 488); label: 3' end held by stalled T7 RNA polymerase.
The molecule B1 showed a dissociation constant (Kd) of 44.5 ± 6 nM. To B2 belongs 30.6 ± 4.5 nM; to B3, 4 ± 0.27 nM.

B4 returned a dissociation constant (Kd) of 38.4 ± 4.75 nM. B5 registered a dissociation constant Kd of 74 ± 17.5 nM. The figure for B6 is 63 ± 10 nM. On to B7, for which the Kd worked out at 97 ± 34 nM. B8 came in with a Kd of 34.3 ± 4.25 nM. The figure for B9 is 65 ± 21.5 nM; for B10 it is 86 ± 20 nM; for B11 it is 25.4 ± 2.4 nM. As for B12, the Kd amounted to 10.6 ± 1.25 nM.

Turning to B13, the affinity, expressed as Kd, was 52.8 ± 5.6 nM.

B14 registered a Kd of 29 ± 2.8 nM.

In the case of B15, binding was characterised by a dissociation constant (Kd) of 33 ± 4.5 nM. To B16 belongs 24.6 ± 3.4 nM; to B17, 58 ± 8.5 nM; to B18, 77.5 ± 21 nM. For the molecule B19, the Kd amounted to 38.8 ± 5.05 nM. The molecule B20 showed a dissociation constant (Kd) of 6.39 ± 0.52 nM. B21: the Kd turned out to be 34.5 ± 11 nM. On to B22, for which the Kd worked out at 100 ± 50 nM. On to B23, for which the equilibrium dissociation constant (Kd) stood at 36.4 ± 3.4 nM. On to B24, for which the Kd is 12.1 ± 0.9 nM. The molecule B25 displayed a dissociation constant (Kd) of 13 ± 1.7 nM. The molecule B26 yielded a Kd of 4.79 ± 0.35 nM. Take B27: the Kd was 44 ± 6 nM.
